In US20050119174A1, “Novel blood sugar controller and method of screening the same” (Sumitomo Pharmaceuticals Co. Ltd., priority 2002, published 2005):
Blank lines part the entries; values can stand above or below the molecule they belong to. Where no end group is shown, it is not given here.

How the values were obtained:
[1] = tested on: diabetic model mouse C57BL/KsJ-db/db mice; test: Oral glucose tolerance test; type: in vivo; settings: for glucose tolerance ameliorating effect (blood glucose level after glucose loading): db/db mice fasted overnight, intravenous, mouse IP-10 6 μg/head, GLP-1 (7-36 Amide) 50 μg/head, 3 g/kg D-glucose orally, 0-135 minutes, FIGS. 2 and 3; for blood glucose levels at 90 minutes after glucose loading: db/db mice, intravenous mouse Mig or human I-TAC, versus solvent control group, FIG. 4
Procedure: In the test, diabetic model mouse C57BL/KsJ-db/db mice (male, SPF grade, 7-week old, Clea Japan) were fasted overnight from the day before testing, mouse IP-10 (PEPRO TECH) or GLP-1 (7-36 Amide) (Peptide Institute), previously dried, was dissolved in physiological saline (Otsuka Pharmaceutical), and intravenous administration was conducted (6 μg/head; n=4 for IP-10, 50 μg/head; n=4 for GLP-1). For a solvent control group, physiological saline (Otsuka Pharmaceutical) was used (n=4). After intravenous administration, 3 g/kg of D-glucose was orally administered. Before glucose loading (0 minute) and 15, 45, 90 and 135 minutes after glucose loading, blood was collected from the caudal vein, and blood glucose levels were measured in accordance with the method described below.
That is, 10 μl of blood was collected and mixed with 100 μL of 0.4 N perchloric acid, further 50 μL of 0.37 M potassium carbonate was added, and the supernatant after centrifugation was analyzed using the Glucose CII•Test Wako (glucose quantitation kit, mutarotase•GOD method, Wako Pure Chemicals) to determine the blood glucose level.
Also for Mig and I-TAC, which are CXCR3 ligands other than IP-10, mouse Mig or human I-TAC (both manufactured by BIOCARTA), previously dried, was dissolved in physiological saline (Otsuka Pharmaceutical), intravenous administration was conducted, and glucose tolerance ameliorating action was evaluated by the same technique.

[2] = biological target: human CXCR3 (human) (UniProt P49682); test: cell-based or functional assay
[3] = biological target: T1, CXCR3 (Homo sapiens, UniProt P49682); test: Calcium signaling using FLIPR, CHO/Gqi5 cells transiently expressing CXCR3; type: cell-based; parameters: prepared by amplifying the coding region of human CXCR3 by the PCR technique; expressed in transfected cells; host or cells: CHO/Gqi5 cells; settings: pcDNA3.1/Zeo-CXCR3 transiently transfected CHO/Gqi5 cells; human ligands, 300 ng/ml; FIG. 5
T1 sequence (P49682 1-368): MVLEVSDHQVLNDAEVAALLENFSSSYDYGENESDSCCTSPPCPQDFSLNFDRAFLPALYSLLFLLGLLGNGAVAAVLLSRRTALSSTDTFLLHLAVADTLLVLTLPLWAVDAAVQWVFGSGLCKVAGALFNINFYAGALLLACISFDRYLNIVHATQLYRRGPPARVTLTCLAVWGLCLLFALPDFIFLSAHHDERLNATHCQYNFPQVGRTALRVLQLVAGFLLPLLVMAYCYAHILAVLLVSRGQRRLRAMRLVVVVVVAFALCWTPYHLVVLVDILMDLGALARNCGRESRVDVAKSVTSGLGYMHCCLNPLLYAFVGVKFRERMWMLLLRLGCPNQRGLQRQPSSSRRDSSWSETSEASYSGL
Procedure: (§1) CHO/Gqi5 cells, at 2×10^4 cells/well, were sown to a 96-well Black bottom clear plate (Corning), and cultured in the absence of antibiotics in a CO2 incubator for 24 hours. 50 ng of pcDNA3.1/Zeo-CXCR3 or pcDNA3.1 was diluted in 5 μl of OPTI-MEM, and 0.3 μl of LipofectAmine was diluted in 5 μl of OPTI-MEM. Both were mixed and allowed to stand at room temperature for 30 minutes, after which 40 μl of a serum-free F12 medium was added, and the mixture was added to wells once washed with a serum-free F12 medium. After cultivation in a CO2 incubator for 4 hours, the medium was replaced with a 10% FBS-supplemented F12 medium (once washed), and the cells were cultured in a CO2 incubator for 24 hours and subjected to a measurement using FLIPR®.
(§2) The cells recovered from each well were sown to a 96-well Black bottom clear plate (Corning). When cell counting was possible, the cells were sown at 2×10^4 cells/well. Next day, the medium was removed, 50 μl of an H/H/F/PB solution containing 2 μM Fluo-3-AM and 0.02% Pluronic acid was added, and cultivation was conducted in a CO2 incubator for 1 hour. […]

[4] = tested on: CHO/Gqi5 cell line incorporating an empty vector (pcDNA3.1); test: Calcium signaling using FLIPR, CHO/Gqi5 cells transfected with control pcDNA3.1 (empty vector); type: cell-based; settings: control pcDNA3.1 transfected CHO/Gqi5 cells; human ligands, 300 ng/ml; FIG. 5
Procedure: as §1, §2

[5] = biological target: T1, CXCR3; test: Calcium signaling using FLIPR, CHO/Gqi5 line stably expressing CXCR3 (#122-17); type: cell-based; parameters: prepared by amplifying the coding region of human CXCR3 by the PCR technique; expressed in transfected cells; host or cells: CHO/Gqi5 cells; settings: #122-17 line, FIG. 6; for concentration dependency of the response: human ligands at 100, 300, 1,000 ng/ml; for ligand concentration from which responsiveness could be confirmed: human ligands
Procedure: 1×10^6 cells were sown to a T25 flask, and cultured in a CO2 incubator for 24 hours. pcDNA3.1/Zeo-CXCR3 was cleaved with the restriction endonuclease SspI, and linearized at the vector portion. 2.5 μg of this plasmid DNA was diluted in 250 μl of OPTI-MEM, and 15 μl of LipofectAmine was diluted in 250 μl of OPTI-MEM. Both were mixed and allowed to stand at room temperature for 30 minutes, after which 2 ml of a serum-free F12 medium was added, and the mixture was added to a flask once washed with a serum-free F12 medium. After cultivation in a CO2 incubator for 4 hours, the medium was replaced with a 10% FBS-supplemented F12 medium (once washed), and cultivation was conducted in a CO2 incubator for 48 hours. The cells were recovered and sown to a 96-well plate at 1, 5 or 25 cells/well. At this time, Zeocin was added at 250 μg/ml. Three 96-well plates for each cell concentration, i.e., a total of nine plates, were cultured. About 20 days later, cells were recovered from the wells with evidence of cell proliferation, and sown to a 96-well Black bottom clear plate (Corning). Next day the plate was subjected to a measurement using FLIPR®, and selection of lines showing good ligand responsiveness was performed. For the lines showing good ligand responsiveness, recloning was performed. Each was selected at 0.1 cells/well on the 96-well plate, cells were recovered from the wells showing evidence of cell proliferation after about 20 days, and line selection was performed in the same manner as above.
The cells recovered from each well were sown to a 96-well Black bottom clear plate (Corning). When cell counting was possible, the cells were sown at 2×10^4 cells/well. Next day, the medium was removed, 50 μl of an H/H/F/PB solution containing 2 μM Fluo-3-AM and 0.02% Pluronic acid was added, and cultivation was conducted in a CO2 incubator for 1 hour. The medium was replaced with 100 μl of H/H/F/PB solution and heating was conducted in a CO2 incubator for 10 minutes, after which the plate was set to FLIPR® and further heated at 37° C. for 10 minutes, after which 25 μl of the ligand similarly heated at 37° C. was added using an injector, and a measurement of calcium signaling was conducted.
By the aforementioned method of (2)-2., pcDNA3.1/Zeo-CXCR3 was cleaved with the restriction endonuclease SspI and linearized at the vector portion. This was transfected to CHO/Gqi5 cells, and drug-resistant lines were selected using 250 μg/ml zeocin to obtain 156 drug-resistant lines. Next, for these resistant lines, responsiveness to IP-10 was confirmed using FLIPR®, and lines showing high ligand responsiveness (6 clones) were isolated. […]

[6] = biological target: T1, CXCR3; settings: J. Biol. Chem., 273(29): 18288-18291 (1998); Eur. J. Immunol., 29 (1999); cited from earlier work

Molecule: GLP-1 (7-36 Amide) (HAEGTFTSDVSSYLEGQAAKEFIAWLVKGR-NH2; UniProt P01275 98-127, looked up) [a kind of incretin known to act on the pancreas to promote insulin secretion (Peptide Institute), reference compound]
glucose tolerance ameliorating effect (blood glucose level after glucose loading) [1]: glucose tolerance ameliorating effect

lowest ligand concentration giving a calcium response (FLIPR) in the CXCR3 stably expressing CHO/Gqi5 line #122-17 [2]: 300 ng/mL
Molecule: Human IP-10 (Peprotech) (from UniProt P02778 22-98) (ligand)

responsiveness to ligand (calcium signaling, fluorescence intensity) [3]: a response was observed
ligand concentration from which responsiveness could be confirmed [5]: ≥ 100 ng/mL
Molecule: I-TAC: CXC chemokine, physiological ligand for CXCR3; human I-TAC
responsiveness to ligand (calcium signaling, fluorescence intensity) [4]: no response was detected
concentration dependency of the response [5]: concentration dependency could be confirmed
blood glucose levels at 90 minutes after glucose loading [1]: decreased compared to the solvent control group

responsiveness to ligand (calcium signaling, fluorescence intensity) [3]: a response was observed
ligand concentration from which responsiveness could be confirmed [5]: ≥ 300 ng/mL
Molecule: IP-10: CXC chemokine, physiological ligand for CXCR3; mouse IP-10 (PEPRO TECH) in Example 1, human IP-10 (Peprotech) in Example 4
responsiveness to ligand (calcium signaling, fluorescence intensity) [4]: no response was detected
concentration dependency of the response [5]: concentration dependency could be confirmed
glucose tolerance ameliorating effect (blood glucose level after glucose loading) [1]: glucose tolerance ameliorating effect nearly equivalent, on a dose basis, to that of GLP-1

Molecule: MCP-3: CC chemokine known to weakly bind to CXCR3
binding to CXCR3 [6]: weakly bind

Molecule: MCP-4: CC chemokine known to weakly bind to CXCR3
binding to CXCR3 [6]: weakly bind

Molecule: MIP-3a: CC chemokine known to weakly bind to CXCR3
binding to CXCR3 [6]: weakly bind

Molecule: RANTES: CC chemokine known to weakly bind to CXCR3
binding to CXCR3 [6]: weakly bind

Molecule: eotaxin: CC chemokine known to weakly bind to CXCR3
binding to CXCR3 [6]: weakly bind

lowest ligand concentration giving a calcium response (FLIPR) in the CXCR3 stably expressing CHO/Gqi5 line #122-17 [2]: 100 ng/mL
Molecule: human I-TAC (G/T) (from UniProt O14625 22-94) (ligand)

B1: Mig: CXC chemokine, physiological ligand for CXCR3; mouse Mig (BIOCARTA) (protein, UniProt P18340 22-126, looked up)
C-X-C motif chemokine 9: TLVIRNARCSCISTSRGTIHYKSLKDLKQFAPSPNCNKTEIIATLKNGDQTCLDPDSANVKKLMKEWEKKISQKKKQKRGKKHQKNMKNRKPKTPQSRRRSRKTT
blood glucose levels at 90 minutes after glucose loading [1]: decreased compared to the solvent control group

B2: 6Ckine: CC chemokine known to weakly bind to CXCR3 (protein, UniProt O00585 24-134, looked up)
C-C motif chemokine 21: SDGGAQDCCLKYSQRKIPAKVVRSYRKQEPSLGCSIPAILFLPRKRSQAELCADPKELWVQQLMQHLDKTPSPQKPAQGCRKDRGASKTGKKGKGSKGCKRTERSQTPKGP
binding to CXCR3 [6]: weakly bind
